By Kd is commonly meant the equilibrium constant for the complex coming apart. The low end stands for a tighter complex, the high end for a looser complex.

Assay [1] addresses T1, ZH 05 as periplasmic ABD fusion AQHDEALE-[ZH 05]-VDYV-[ABD]-YVPG (Streptococcus strain G148, UniProt P19909 254-299, limits assumed).
T1 construct: domain: GA3
Kind of assay: SPR (Biacore 2000) screening; periplasmic Z-ABD captured on anti-ABD antibody, 200 nM boxA(disulfide); 1:1 model. The procedure: (§1) Biacore screening of Z variants: The binding of Z variants to boxA(disulfide) was analyzed in an affinity screening using a Biacore 2000 instrument. A polyclonal goat anti-ABD antibody (goat anti-ABD) was immobilized on CM5 chip surfaces basically as described for other proteins in Example 3. For the kinetic screening, analytes were injected in two steps. First, a Z-ABD (where ABD is GA3) periplasmic extract was injected over the surface at 5 μl/min for 10 min. As a second step, 200 nM boxA(disulfide) was injected at 20 μl/min for 5 min, followed by 10 min of dissociation in running buffer HBS-EP. Glycine-HCl pH 2.0 (GE Healthcare, cat. no. BR100355) was used for regeneration of the antibody surfaces between the cycles. The temperature of the assay was 25° C. Before performing the kinetic analyses, the signal from 200 nM boxA(disulfide) injected over a reference surface containing goat anti-ABD but no Z-ABD sample was subtracted from the sensorgram of Z-ABD binding to boxA(disulfide). […] A periplasmic extract of ZH 01 was included in the screening analysis for comparison.
(§2) Biacore screening of Z variants: Seven new unique Z variants giving the highest response in ELISA-screen, ZH 04 (SEQ ID NO:4), ZH 05 (SEQ ID NO:5), ZH 06 (SEQ ID NO:6), ZH 07 (SEQ ID NO:7), ZH 08 (SEQ ID NO:8), ZH 09 (SEQ ID NO:9) and ZH 10 (SEQ ID NO:10) were submitted to a Biacore affinity screening together with ZH 01 (SEQ ID NO:1) and ZH 29 (SEQ ID NO:29; its binding motif is identical to that of ZH 01, but the sequence comprises scaffold amino acid variations V1A, D2E, Y5F, N52S and D53E). A single concentration of boxA(disulfide) was injected over each Z-ABD captured from periplasmic extracts on a sensor chip surface containing an anti-ABD antibody.

Assay [2] addresses T2, ZH 06 as periplasmic ABD fusion AQHDEALE-[ZH 06]-VDYV-[ABD]-YVPG (Streptococcus strain G148, UniProt P19909 254-299, limits assumed).
T2 construct: domain: GA3
The description is as above. The procedure: as §1, §2

Assay [3] has as its target T3, ZH 08 as periplasmic ABD fusion AQHDEALE-[ZH 08]-VDYV-[ABD]-YVPG (Streptococcus strain G148, UniProt P19909 254-299, limits assumed).
T3 construct: domain: GA3
The description is as above. Here is the method:
as §1, §2

Assay [4] concerns the target T4, ZH 09 as periplasmic ABD fusion AQHDEALE-[ZH 09]-VDYV-[ABD]-YVPG (Streptococcus strain G148, UniProt P19909 254-299, limits assumed).
T4 construct: domain: GA3
The assay is described as above. Here is the method:
as §1, §2

Assay [5] has as its target T5, ZH 10 as periplasmic ABD fusion AQHDEALE-[ZH 10]-VDYV-[ABD]-YVPG (Streptococcus strain G148, UniProt P19909 254-299, limits assumed).
T5 construct: domain: GA3
The assay is described as above. The procedure: as §1, §2

The target of assay [6] is T6, ZH 01 as periplasmic ABD fusion AQHDEALE-[ZH 01]-VDYV-[ABD]-YVPG (Streptococcus strain G148, UniProt P19909 254-299, limits assumed).
T6 construct: domain: GA3
Described as above. The procedure: as §1, §2

Assay [7] has as its target T7, ZH 04 as periplasmic ABD fusion AQHDEALE-[ZH 04]-VDYV-[ABD]-YVPG (Streptococcus strain G148, UniProt P19909 254-299, limits assumed).
T7 construct: domain: GA3
Kind of assay: SPR (Biacore 2000) screening; periplasmic Z-ABD captured on anti-ABD antibody, 200 nM boxA(disulfide); 1:1 model; average of 2 measurements. The procedure:
as §1, with “comparison. […]” for “comparison.”

The target of assay [8] is T8, ZH 29 as periplasmic ABD fusion AQHDEALE-[ZH 29]-VDYV-[ABD]-YVPG (Streptococcus strain G148, UniProt P19909 254-299, limits assumed).
T8 construct: domain: GA3
Kind of assay: SPR (Biacore 2000) screening; periplasmic Z-ABD captured on anti-ABD antibody, 200 nM boxA(disulfide); 1:1 model; average of 3 measurements. Here is the method: as §1, with “comparison. […]” for “comparison.”

Assay [9] addresses T9, ZH 07 as periplasmic ABD fusion AQHDEALE-[ZH 07]-VDYV-[ABD]-YVPG (Streptococcus strain G148, UniProt P19909 254-299, limits assumed).
T9 construct: domain: GA3
Kind of assay: SPR (Biacore 2000) screening; periplasmic Z-ABD captured on anti-ABD antibody, 200 nM boxA(disulfide); 1:1 model; average of 8 measurements. Here is the method:
as §1, with “comparison. […]” for “comparison.”

B1: boxA(disulfide), disulfide linked form of A-box domain of HMGB1 (other)
chain: MGKGDPKKPRGKMSSYAFFVQTCREEHKKKHPDASVNFSEFSKKCSERWKTMSAKEKGKFEDMAKADKARYEREMKTYIPPKGETKKKF
modifications: disulfide C23-C45
notes: also called b-boxA(disulfide)
For B1, the Kd is approximately 54 nM in [1]; approximately 71 nM in assay [2]; approximately 31 nM in assay [3]; approximately 91 nM in assay [4]; approximately 47 nM in assay [5]; approximately 4.7 nM in [6]. Besides, the values for the dissociation constant (Kd) in [7], in assay [8] and in [9] were approximately 54 nM, approximately 36 nM and approximately 44 nM, respectively.
